Test results from patent US11319368B2, “Treatment of hepatotoxicity with IL-11 antibody” (Singapore Health Services PTE LTD., priority 2019, dated 2022).

Experiments:
heart [1] = details: 8 μg/kg, IV 24 hours after ligation, then every 24 hours for 4 days; cited from earlier work
heart [2] = details: 20 μg/kg, IV at the start of reperfusion; cited from earlier work
[3] = tested on: activated murine CD4+ve T-cells; details: 1-500 ng/ml; cited from earlier work
[4] = tested on: primary human hepatocytes; test: IL11 stimulation of primary human hepatocytes with sgp130 or sIL11Rα; format: cell-based; details: IL11 0.625 ng/ml to 20 ng/ml
[5] = tested on: epithelial cell integrity; details: oral 0.5 mg/kg/day, 12 days; cited from earlier work
mIL11Rα1 = molecular target: T1, mIL11Rα1 (Mus musculus, UniProt Q64385); test: Competition ELISA, biotinylated rmIL11 binding to mIL11Rα1; details: two-fold dilutions from 5 μg ml^-1
T1 construct: purchased SinoBiological 50075-M08H
T1 sequence (Q64385 24-432): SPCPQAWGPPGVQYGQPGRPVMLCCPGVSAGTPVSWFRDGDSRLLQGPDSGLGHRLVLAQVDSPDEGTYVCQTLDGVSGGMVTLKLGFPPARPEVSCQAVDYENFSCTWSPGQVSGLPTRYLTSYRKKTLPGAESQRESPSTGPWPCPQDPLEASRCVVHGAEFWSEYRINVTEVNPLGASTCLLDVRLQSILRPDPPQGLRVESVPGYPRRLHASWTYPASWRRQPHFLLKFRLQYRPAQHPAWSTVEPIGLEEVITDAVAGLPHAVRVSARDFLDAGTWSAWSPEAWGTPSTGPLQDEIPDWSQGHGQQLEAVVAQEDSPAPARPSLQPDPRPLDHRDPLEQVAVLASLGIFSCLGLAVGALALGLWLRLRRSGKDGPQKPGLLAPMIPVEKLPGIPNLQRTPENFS
Procedure: Mouse IL11Rα (1 μg ml^−1 in PBS) was coated on a 96-well plate (overnight at 4° C.) and then blocked with blocking buffer (1% BSA in PBS containing 0.05% Tween20). Biotinylated mouse Il11 was prepared using Lightning-Link Rapid Biotin type A kit (Expedeon) according to the manufacturer's instructions. RhIL11 or rmIl11 was two-fold serially diluted in blocking buffer (starting at 5 μg ml^−1) and mixed with 0.01 μg ml^−1 biotinylated mouse IL11. The mixture of biotinylated mouse IL11 and either rhIL11 or rmIL11 was added into the coated plate and incubated for 1 h at RT. Color development was performed by adding Streptavidin-HRP (1:1000 in blocking buffer) and TMB chromogen solution (002023, ThermoFisher Scientific).

[6] = tested on: primary human hepatocytes; test: IL-11 treatment of primary human hepatocytes: ALT in supernatant, actin stress fibres; format: cell-based; details: IL-11 0.019-10 ng/ml, 24 h
Procedure: IL-11 mediated hepatocyte cell death was measured by determining the levels of alanine transaminase (ALT) in hepatocyte supernatant after treatment with a range of IL-11 doses (0.019-10 ng/ml). ALT levels were measured using ALT Activity Assay Kit (ab105134, Abcam) according to the manufacturer's protocol. Concurrent number of stress fibres 24 h after IL-11 stimulation was detected by rhodamine-phalloidin staining.

GVHD = details: 250 μg/kg, SC, twice daily; cited from earlier work
mouse livers = details: 500 μg/kg, IV prior to WI/Rp injury; cited from earlier work

B1: rhIL11: Recombinant human IL11 (UniProtKB:P20809, Genscript) (protein)
chain: PGPPPGPPRVSPDPRAELDSTVLLTRSLLADTRQLAAQLRDKFPADGDHNLDSLPTLAMSAGALGALQLPGVLTRLRADLLSYLRHVQWLRRAGGSSLKTLEPELGTLQARLDRLLRRLQLLMSRLALPQPPPDPPAPPLAPPSSAWGGIRAAHAILGGLHLTLDWAVRGLLLLKTRL
post-MI scar volume (heart [1]): then consecutively every 24 hours for 4 days reduces post-MI | adverse cardiac remodeling and apoptosis (heart [2]): prevents adverse cardiac remodeling and apoptosis after | immune response of CD4+ve T-cells [3]: CD4+ve T-cells and modulates, not represses, the immune | hepatocyte cell death (ALT) [4]: dose-dependently (0.625 ng/ml to 20 ng/ml) caused hepatocyte cell death | epithelial cell integrity during cyclophosphamide chemotherapy [5]: The authors suggest that IL11 maintains epithelial cell integrity | competition with rmIL11 for binding to mIL11Rα1 (mIL11Rα1): competed with rmIL11 for binding to mIL11Rα1 | actin stress fibres in hepatocytes [6]: progressively stimulated an increase in actin stress fibres | alanine aminotransferase (ALT) in hepatocyte supernatant (hepatocyte cell death) [6]: progressive increase in alanine aminotransferase (ALT) | Graft-vs-Host-Disease (GVHD): The authors conclude that IL11 prevents Graft-vs-Host-Disease | protection from WI/Rp injury (mouse livers): injury protects mouse livers. In vitro, pre-treatment with rhIL11
